System: Escherichia coli TOP10
Test: shrunken log2 fold change of peptide-encoding DNA abundance (4.5 h post-induction vs induction); higher = less antimicrobial activity (less host growth inhibition)
Settings: time post-induction: 4.5 h; library: site-saturation at positions 5, 18, 19, 20
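Also: peptides expressed intracellularly from a pBAD plasmid library in pooled LB shake-flask culture, induced with 0.3% L-arabinose, DNA abundance read by NGS, three biological replicates, DESeq2 with apeglm shrinkage.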

Sequence	shrunken log2 fold change
RRIRTRPPRLPRPRPRPSVDPRP	-0.108
RRIRERPPRLPRPRPRPHQAPRP	0.0779
RRIRPRPPRLPRPRPRPHAGPRP	1.77
RRIRMRPPRLPRPRPRPEVNPRP	0.156
RRIRMRPPRLPRPRPRPELLPRP	3.52
RRIRHRPPRLPRPRPRPIKIPRP	-0.62
RRIRTRPPRLPRPRPRPTVTPRP	0.0797
RRIRQRPPRLPRPRPRPIYFPRP	-0.115
RRIRMRPPRLPRPRPRPYYDPRP	0.000459
RRIRARPPRLPRPRPRPAWCPRP	1.28
RRIRTRPPRLPRPRPRPIEVPRP	0.131
RRIRRRPPRLPRPRPRPYIIPRP	-0.427
RRIRYRPPRLPRPRPRPGEYPRP	-0.0574
RRIRTRPPRLPRPRPRPEGYPRP	-0.104
RRIRSRPPRLPRPRPRPWKSPRP	-0.0239
RRIRPRPPRLPRPRPRPGYPPRP	-0.0289
RRIRRRPPRLPRPRPRPYAVPRP	-0.191
RRIRDRPPRLPRPRPRPKVFPRP	0.0612
RRIRNRPPRLPRPRPRPLSTPRP	0.0462
RRIRKRPPRLPRPRPRPFVEPRP	0.0241
RRIRSRPPRLPRPRPRPMHLPRP	-0.118
RRIRNRPPRLPRPRPRPKVQPRP	0.341
RRIRRRPPRLPRPRPRPIPIPRP	-0.0501
RRIRNRPPRLPRPRPRPKKWPRP	-0.00407
RRIRIRPPRLPRPRPRPQWSPRP	-0.618

Sequence	shrunken log2 fold change
RRIRLRPPRLPRPRPRPCVDPRP	0.0214
RRIRCRPPRLPRPRPRPAIFPRP	-0.273
RRIRSRPPRLPRPRPRPRLFPRP	0.376
RRIRCRPPRLPRPRPRPYFIPRP	-1.18
RRIRTRPPRLPRPRPRPSPFPRP	0.133
RRIRPRPPRLPRPRPRPPDRPRP	0.583
RRIRARPPRLPRPRPRPSYGPRP	-0.282
RRIRLRPPRLPRPRPRPADDPRP	-0.088
RRIRVRPPRLPRPRPRPIDMPRP	-0.0698
RRIRARPPRLPRPRPRPKFWPRP	0.696
RRIRARPPRLPRPRPRPDYRPRP	0.0573
RRIRVRPPRLPRPRPRPGIIPRP	0.136
RRIRQRPPRLPRPRPRPPAVPRP	0.408
RRIRSRPPRLPRPRPRPWWRPRP	-0.0239
RRIRGRPPRLPRPRPRPEFCPRP	1.23
RRIRARPPRLPRPRPRPYCPPRP	-0.585
RRIRFRPPRLPRPRPRPGNKPRP	-0.344
RRIRLRPPRLPRPRPRPGNMPRP	-0.157
RRIRCRPPRLPRPRPRPVAMPRP	-0.125
RRIRERPPRLPRPRPRPHGYPRP	0.0062
RRIRTRPPRLPRPRPRPSFYPRP	-0.343
RRIRNRPPRLPRPRPRPQMQPRP	-0.0154
RRIRTRPPRLPRPRPRPDLWPRP	0.27
RRIRVRPPRLPRPRPRPKFQPRP	-0.274
RRIRSRPPRLPRPRPRPFMVPRP	-0.337

Sequence	shrunken log2 fold change
RRIRRRPPRLPRPRPRPYYVPRP	-0.427
RRIRVRPPRLPRPRPRPTAAPRP	0.09
RRIRARPPRLPRPRPRPYSRPRP	-0.0171
RRIRHRPPRLPRPRPRPPQYPRP	-0.154
RRIRRRPPRLPRPRPRPHTFPRP	-0.108
RRIRDRPPRLPRPRPRPPSNPRP	0.137
RRIRNRPPRLPRPRPRPYGLPRP	-0.106
RRIRHRPPRLPRPRPRPIIMPRP	-0.029
RRIRQRPPRLPRPRPRPPSDPRP	1.18
RRIRTRPPRLPRPRPRPCEEPRP	0.0871
RRIRIRPPRLPRPRPRPIYAPRP	-0.758
RRIRVRPPRLPRPRPRPKVTPRP	0.0458
RRIRARPPRLPRPRPRPFSTPRP	-0.572
RRIRRRPPRLPRPRPRPGADPRP	0.725
RRIRPRPPRLPRPRPRPMQHPRP	-0.0486
RRIRHRPPRLPRPRPRPIRAPRP	0.0218
RRIRHRPPRLPRPRPRPCGAPRP	0.0817
RRIRIRPPRLPRPRPRPKSQPRP	-0.0352
RRIRFRPPRLPRPRPRPPWRPRP	1.68
RRIRLRPPRLPRPRPRPTAHPRP	0.0391
RRIRQRPPRLPRPRPRPTAPPRP	0.0785
RRIRDRPPRLPRPRPRPSIQPRP	-0.0741
RRIRFRPPRLPRPRPRPLVDPRP	0.0316
RRIRQRPPRLPRPRPRPVYHPRP	-0.83
RRIRMRPPRLPRPRPRPCDVPRP	0.0259

— the supplement of paper PMC9112550, “Optimization of the antimicrobial peptide Bac7 by deep mutational scanning” (BMC Biology, 2022)
